22 molecules from paper PMC5043372 (2016) can be followed below.

Non-standard residues stand in square brackets, D forms with d. No end group written: not given here. pY = N[C@@H](Cc1ccc(OP(=O)(O)O)cc1)C(=O)O

Common to all, as to test: ITC
(In general: In ITC the heat of successive injections is recorded.)

For assay [1], the target named is T1, SH2 domain of human CRK (human, UniProt P46108 13-118).
The target in assay [2] is T2, SH2 domain of human CRKL (human, UniProt P46109 14-102).
Assay [3] concerns the target T3, SH2 domain of Monosiga brevicollis crka1 (Monosiga brevicollis, UniProt A0A1C9VNP8 1-97).
T3 chain: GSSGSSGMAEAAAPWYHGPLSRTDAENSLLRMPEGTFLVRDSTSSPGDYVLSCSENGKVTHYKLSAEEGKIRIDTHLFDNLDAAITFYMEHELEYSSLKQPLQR

Assay [4] concerns the target T1, SH2 domain of human CRK. The source holds these as a separate data set.
Assay [5] has as its target T2, SH2 domain of human CRKL. The source holds these as a separate data set.
In assay [6] the target is T3, SH2 domain of Monosiga brevicollis crka1.

T2 sequence (P46109 other isoform, or with tags, fused parts or gaps): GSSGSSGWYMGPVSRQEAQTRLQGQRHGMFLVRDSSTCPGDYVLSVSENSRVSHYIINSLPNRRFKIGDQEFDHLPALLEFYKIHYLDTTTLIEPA
T1 sequence (P46108 other isoform, or with tags, fused parts or gaps): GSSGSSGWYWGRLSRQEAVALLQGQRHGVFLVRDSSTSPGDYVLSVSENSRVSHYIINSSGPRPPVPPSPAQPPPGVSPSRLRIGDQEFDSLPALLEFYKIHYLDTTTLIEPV

With DL[pY]QVPPG [p130Cas (Bcar1) Y169 peptide DL-pYQVP-PG], the Kd in assay [1] amounted to 2.17 µM.
Take GP[pY]AQPSV [CRK Y221 peptide GP-pYAQP-SV]: binding in assay [1] was characterised by a dissociation constant (Kd) of 10.2 µM.
As to DE[pY]DTPRH [phosphotyrosyl peptide from M. musculus Bcar1 (p130Cas, Y238)], the figures for the Kd in assay [2], in assay [1] and in assay [3] were 0.368 µM, 0.127 µM and 10.1 µM, respectively.
As to SV[pY]ESPYS [ZAP70 Y315 peptide SV-pYESP-YS], in assay [1], the Kd was found to be 4.44 µM.
Still for that read-out and setting: under QQ[pY]SSPGL [EPHB6 Y635 peptide QQ-pYSSP-GL] stands 5.21 µM.
For the molecule AE[pY]QVPTS [Dok7 (Y396) peptide AE-pYQVP-TS], the Kd is 0.654 µM in assay [2], 0.427 µM in assay [1] and 42.9 µM in assay [3].
Regarding EV[pY]DTPPM [p130Cas (Bcar1) Y271 peptide EV-pYDTP-PM], in assay [1], binding was characterised by a dissociation constant (Kd) of 1.07 µM.
For SR[pY]QQPFE [PLCG1 Y1253 peptide SR-pYQQP-FE], the Kd in assay [2] worked out at 9.8 µM; in assay [1] it was 6.45 µM.
Turning to LN[pY]ENLPS [FRS2 Y349 peptide LN-pYENL-PS], the Kd in assay [3] worked out at 126 µM.
In assay [1], SN[pY]MAPYD [PDGFRB Y771 peptide SN-pYMAP-YD] showed a Kd of 25.1 µM.
Take DL[pY]DVPPG [p130Cas (Bcar1) Y376 peptide DL-pYDVP-PG]: the dissociation constant (Kd) in assay [1] was found to be 4.83 µM.
Still for that read-out and setting: the figure for SV[pY]DVPPS [p130Cas (Bcar1) Y310 peptide SV-pYDVP-PS] is 0.649 µM.
The molecule DL[pY]QVPPG [Bcar1 Y169] had a Ka in assay [4] of 460000 M⁻¹.
For HH[pY]DTPRS [phosphotyrosyl peptide from M. musculus Dok7 (Y406)], the Kd is 0.109 µM in assay [2], 0.0602 µM in assay [1] and 8.62 µM in assay [3]. The Ka in assay [5] is 9.16e+06 M⁻¹; in assay [6], 116000 M⁻¹.
Turning to HV[pY]SFPNK [paxillin (PXN) Y118 peptide HV-pYSFP-NK], the Kd in assay [1] was 2.48 µM.
In the case of AE[pY]QVPTS [Dok7 Y396], the Ka in assay [5] is 1.53e+06 M⁻¹; in assay [4], 2.34e+06 M⁻¹; in assay [6] it was 23300 M⁻¹.
For DM[pY]DVPRN [phosphopeptide DM-pYDVP-RN of S. rosetta PTSG_05573], in assay [3], the Kd was found to be 61.7 µM.
With PH[pY]FVLTS [PLCG1 Y509 peptide PH-pYFVL-TS], the affinity in assay [1], expressed as Kd, was 8.93 µM.
In assay [1], PN[pY]MFPSQ [ROR1 Y789 peptide PN-pYMFP-SQ] yielded a Kd of 8.85 µM.
Regarding SL[pY]DRPAS [PDGFRA Y762 peptide SL-pYDRP-AS], in assay [1], the Kd worked out at 0.98 µM.
For the molecule DV[pY]DVPPS [p130Cas (Bcar1) Y291 peptide DV-pYDVP-PS], the Kd was 1.06 µM in assay [2] and 0.455 µM in assay [1].
In turn, EM[pY]DVPRS [phosphopeptide EM-pYDVP-RS of S. rosetta PTSG_05573] gave a Kd in assay [3] of 118 µM.

As usually defined, the Kd is a measure of binding affinity in units of concentration. A lower Kd goes with a tighter complex.
